From the Immune Epitope Database (IEDB)
pKd: −log10 of the molar value. Each block holds one sequence with its values, some of them ahead of it.

Legend:
HLA-A*30:01 = experiment: IEDB peptide-MHC binding, purified MHC/direct/fluorescence; filed as Kd, often an IC50 or EC50 that approximates it; ≥ and ≤ were set here for values at or beyond the usual limits of such assays
HLA-A*01:01 = experiment: as above
HLA-B*08:01 [1] = experiment: IEDB peptide-MHC binding, purified MHC/competitive/fluorescence; filed as Kd, often an IC50 or EC50 that approximates it; ≥ and ≤ were set here for values at or beyond the usual limits of such assays
HLA-B*35:01 = experiment: as above
HLA-B*07:02 = experiment: IEDB peptide-MHC binding, purified MHC/direct/fluorescence; filed as Kd, often an IC50 or EC50 that approximates it; ≥ and ≤ were set here for values at or beyond the usual limits of such assays
HLA-B*40:01 = experiment: as above
HLA-B*15:01 [2] = experiment: as above
HLA-A*11:01 = experiment: as above
HLA-A*03:01 = experiment: as above
HLA-B*27:05 = experiment: as above
HLA-A*31:01 [3] = experiment: as above
HLA-B*08:01 [4] = experiment: as above
HLA-B*58:01 = experiment: as above
HLA-A*24:03 = experiment: as above
HLA-A*69:01 [5] = experiment: as above
HLA-A*02:01 [6] = experiment: as above
HLA-A*26:01 [7] = experiment: as above
HLA-B*44:02 = experiment: as above
HLA-B*15:01 [8] = experiment: IEDB peptide-MHC binding, purified MHC/competitive/fluorescence; filed as Kd, often an IC50 or EC50 that approximates it; ≥ and ≤ were set here for values at or beyond the usual limits of such assays
HLA-A*02:01 [9] = experiment: as above
HLA-B*15:17 = experiment: as above; settings: source organism: Zaire ebolavirus
HLA-B*51:01 = experiment: as above
HLA-B*39:01 = experiment: as above
HLA-B*18:01 = experiment: as above
HLA-B*46:01 = experiment: as above
HLA-B*27:03 = experiment: as above
HLA-B*57:01 = experiment: as above
HLA-A*26:01 [10] = experiment: as above
HLA-A*02:19 = experiment: IEDB peptide-MHC binding, purified MHC/direct/fluorescence; filed as Kd, often an IC50 or EC50 that approximates it; ≥ and ≤ were set here for values at or beyond the usual limits of such assays
HLA-A*29:02 = experiment: as above
HLA-A*02:03 = experiment: as above
HLA-A*02:12 = experiment: as above
HLA-A*23:01 = experiment: as above
HLA-A*68:02 = experiment: as above
HLA-A*02:11 = experiment: as above
HLA-A*69:01 [11] = experiment: IEDB peptide-MHC binding, purified MHC/competitive/fluorescence; filed as Kd, often an IC50 or EC50 that approximates it; ≥ and ≤ were set here for values at or beyond the usual limits of such assays
HLA-A*02:16 = experiment: IEDB peptide-MHC binding, purified MHC/direct/fluorescence; filed as Kd, often an IC50 or EC50 that approximates it; ≥ and ≤ were set here for values at or beyond the usual limits of such assays
HLA-A*31:01 [12] = experiment: IEDB peptide-MHC binding, purified MHC/competitive/fluorescence; filed as Kd, often an IC50 or EC50 that approximates it; ≥ and ≤ were set here for values at or beyond the usual limits of such assays; settings: source organism: Zaire ebolavirus
[13] = source organism: Escherichia coli
[14] = source organism: Giardia lamblia ATCC 50803
[15] = source organism: Pseudomonas aeruginosa UCBPP-PA14
[16] = source organism: Pseudomonas aeruginosa
[17] = source organism: Escherichia coli 536
[18] = source organism: Campylobacter jejuni
[19] = source organism: Zaire ebolavirus
[20] = source organism: Orthohantavirus sinnombreense
[21] = source organism: Ravn virus - Ravn, Kenya, 1987

Sequence: WSHRVTSPK
pKd (HLA-A*30:01; source organism: Vibrio cholerae V52): 7.30
pKd (HLA-A*01:01; source organism: Vibrio cholerae): ≤ 4.70

pKd (HLA-B*08:01 [1]; source organism: Escherichia coli O139:H28 str. E24377A): ≤ 4.70
Sequence: HPKRTERAG

pKd (HLA-B*35:01; source organism: Escherichia coli str. K-12 substr. MG1655): ≤ 5.30
pKd (HLA-B*07:02; [13]): 5.33
pKd (HLA-A*30:01; [13]): ≤ 4.70
pKd (HLA-B*40:01; [13]): ≤ 4.70
pKd (HLA-B*15:01 [2]; [13]): ≤ 4.70
pKd (HLA-A*11:01; [13]): ≤ 4.70
pKd (HLA-A*03:01; [13]): ≤ 4.70
pKd (HLA-B*27:05; [13]): ≤ 4.70
pKd (HLA-A*31:01 [3]; [13]): ≤ 4.70
pKd (HLA-B*08:01 [4]; [13]): ≤ 4.70
pKd (HLA-B*58:01; [13]): ≤ 4.70
pKd (HLA-A*24:03; [13]): 4.86
pKd (HLA-A*01:01; [13]): ≤ 4.70
pKd (HLA-A*69:01 [5]; [13]): ≤ 4.70
pKd (HLA-A*02:01 [6]; [13]): ≤ 4.70
pKd (HLA-A*26:01 [7]; [13]): ≤ 4.70
Sequence: WCRVGRGTI

Sequence: GPGEVSAAM
pKd (HLA-B*35:01; source organism: Mycobacterium tuberculosis variant bovis BCG str. Pasteur 1173P2): 8.41
pKd (HLA-B*07:02; source organism: Mycobacterium tuberculosis str. Haarlem): 6.84

Sequence: VYAYPSGEK
pKd (HLA-B*07:02; [14]): ≤ 4.70
pKd (HLA-A*30:01; [14]): 5.33
pKd (HLA-B*40:01; [14]): ≤ 4.70
pKd (HLA-B*15:01 [2]; [14]): ≤ 4.70
pKd (HLA-A*11:01; [14]): 5.11
pKd (HLA-A*03:01; [14]): 5.47
pKd (HLA-B*27:05; [14]): ≤ 4.70
pKd (HLA-B*44:02; [14]): ≤ 4.70
pKd (HLA-B*08:01 [4]; [14]): ≤ 4.70
pKd (HLA-B*58:01; [14]): ≤ 4.70
pKd (HLA-A*24:03; [14]): ≤ 4.70
pKd (HLA-A*01:01; [14]): ≤ 4.70
pKd (HLA-A*69:01 [5]; [14]): ≤ 4.70
pKd (HLA-A*02:01 [6]; [14]): ≤ 4.70
pKd (HLA-A*26:01 [7]; [14]): ≤ 4.70

pKd (HLA-B*07:02; [15]): ≤ 4.70
pKd (HLA-A*30:01; [16]): 5.70
pKd (HLA-B*40:01; [15]): ≤ 4.70
pKd (HLA-B*15:01 [2]; [15]): ≤ 4.70
pKd (HLA-A*11:01; [16]): 5.06
pKd (HLA-A*03:01; [16]): 5.46
pKd (HLA-B*27:05; [15]): ≤ 4.70
pKd (HLA-A*31:01 [3]; [16]): 7.34
pKd (HLA-B*08:01 [4]; [15]): ≤ 4.70
pKd (HLA-B*58:01; [15]): ≤ 4.70
pKd (HLA-A*24:03; [15]): ≤ 4.70
pKd (HLA-A*01:01; [15]): ≤ 4.70
pKd (HLA-A*69:01 [5]; [15]): ≤ 4.70
pKd (HLA-A*02:01 [6]; [15]): ≤ 4.70
pKd (HLA-A*26:01 [7]; [15]): ≤ 4.70
Sequence: RDYRTISPR

pKd (HLA-B*15:01 [8]; [17]): ≤ 4.70
pKd (HLA-B*08:01 [1]; [17]): 7.34
pKd (HLA-A*02:01 [9]; [17]): 7.84
Sequence: WLLLRQLPI

Sequence: VKKLWGHLP
pKd (HLA-A*30:01; [18]): ≤ 4.70
pKd (HLA-B*40:01; [18]): ≤ 4.70
pKd (HLA-B*15:01 [2]; [18]): ≤ 4.70
pKd (HLA-A*11:01; [18]): ≤ 4.70
pKd (HLA-A*03:01; [18]): ≤ 4.70
pKd (HLA-B*27:05; [18]): ≤ 4.70
pKd (HLA-A*31:01 [3]; [18]): ≤ 4.70
pKd (HLA-B*44:02; [18]): ≤ 4.70
pKd (HLA-B*58:01; [18]): ≤ 4.70
pKd (HLA-A*24:03; [18]): ≤ 4.70
pKd (HLA-A*01:01; [18]): ≤ 4.70
pKd (HLA-A*69:01 [5]; [18]): ≤ 4.70
pKd (HLA-A*02:01 [6]; [18]): ≤ 4.70
pKd (HLA-A*26:01 [7]; [18]): ≤ 4.70

Sequence: QTEPKTSVV
pKd (HLA-B*15:01 [8]; [19]): ≤ 4.70
pKd (HLA-B*15:17): ≤ 4.70
pKd (HLA-B*51:01; [19]): ≤ 4.70
pKd (HLA-B*39:01; [19]): ≤ 4.70
pKd (HLA-B*18:01; [19]): ≤ 4.70
pKd (HLA-B*46:01; [19]): ≤ 4.70
pKd (HLA-B*27:03; [19]): ≤ 4.70
pKd (HLA-B*57:01; [19]): ≤ 4.70
pKd (HLA-A*02:01 [9]; [19]): ≤ 4.70
pKd (HLA-A*26:01 [10]; [19]): ≤ 4.70
pKd (HLA-A*02:19; [19]): ≤ 4.70
pKd (HLA-A*29:02; [19]): ≤ 4.70
pKd (HLA-A*03:01; [19]): ≤ 4.70
pKd (HLA-A*02:03; [19]): ≤ 4.70
pKd (HLA-A*02:12; [19]): ≤ 4.70
pKd (HLA-A*23:01; [19]): ≤ 4.70
pKd (HLA-A*24:03; [19]): ≤ 4.70
pKd (HLA-A*01:01; source organism: Ebola virus - Eckron (Zaire, 1976)): 4.79
pKd (HLA-A*68:02; [19]): ≤ 4.70
pKd (HLA-A*02:11; [19]): ≤ 4.70

Sequence: HTVGLGQGY
pKd (HLA-B*51:01; [20]): ≤ 4.70
pKd (HLA-B*39:01; [20]): ≤ 4.70
pKd (HLA-B*18:01; [20]): ≤ 4.70
pKd (HLA-B*46:01; [20]): ≤ 4.70
pKd (HLA-B*27:03; [20]): ≤ 4.70
pKd (HLA-B*57:01; [20]): ≤ 4.70
pKd (HLA-A*69:01 [11]; [20]): ≤ 4.70
pKd (HLA-A*02:01 [9]; [20]): ≤ 4.70
pKd (HLA-A*26:01 [10]; [20]): 8.68
pKd (HLA-A*02:19; source organism: Choclo virus): ≤ 4.70
pKd (HLA-A*03:01; source organism: Choclo virus): ≤ 4.70
pKd (HLA-A*02:03; source organism: Choclo virus): ≤ 4.70
pKd (HLA-A*02:12; source organism: Choclo virus): ≤ 4.70
pKd (HLA-A*23:01; source organism: Choclo virus): ≤ 4.70
pKd (HLA-A*24:03; source organism: Choclo virus): ≤ 4.70
pKd (HLA-A*01:01; source organism: Orthohantavirus andesense): ≤ 5.30
pKd (HLA-A*02:16; source organism: Choclo virus): ≤ 4.70
pKd (HLA-A*02:11; source organism: Choclo virus): ≤ 4.70

Sequence: HSGFIYFGK
pKd (HLA-B*15:01 [8]; [19]): ≤ 4.70
pKd (HLA-B*15:17): ≤ 4.70
pKd (HLA-B*51:01; [19]): ≤ 4.70
pKd (HLA-A*31:01 [12]): 6.10
pKd (HLA-B*39:01; [19]): ≤ 4.70
pKd (HLA-B*18:01; [19]): ≤ 4.70
pKd (HLA-B*46:01; [19]): ≤ 4.70
pKd (HLA-B*27:03; [19]): ≤ 4.70
pKd (HLA-B*57:01; [19]): ≤ 4.70
pKd (HLA-A*69:01 [11]; [19]): ≤ 4.70
pKd (HLA-A*02:01 [9]; [19]): ≤ 4.70
pKd (HLA-A*26:01 [10]; [19]): ≤ 4.70
pKd (HLA-A*02:19; [21]): ≤ 4.70
pKd (HLA-A*29:02; [21]): ≤ 4.70
pKd (HLA-A*03:01; source organism: Sudan ebolavirus - Uganda (2000)): 5.46
pKd (HLA-A*02:03; [21]): ≤ 4.70
pKd (HLA-A*02:12; [21]): ≤ 4.70
pKd (HLA-A*23:01; [21]): ≤ 4.70
pKd (HLA-A*24:03; [21]): ≤ 4.70
pKd (HLA-A*02:16; [21]): ≤ 4.70
pKd (HLA-A*68:02; [21]): ≤ 4.70
pKd (HLA-A*02:11; [21]): ≤ 4.70
